Results reported in PMC8643467, “Appearance of peanut agglutinin in the blood circulation after peanut ingestion promotes endothelial secretion of metastasis-promoting cytokines” (Carcinogenesis, 2021).

Biological target: MCAM (CD146), melanoma cell adhesion molecule (human (endogenous in HUVECs), UniProt P43121 24-646)
Assay: cell-based or functional assay

IL-6 secretion from HUVECs by ELISA, dose series of PNA, highest after 24 h with 8 μg/ml PNA: 3 fold | MCP-1 secretion from HUVECs by ELISA, dose series of PNA, highest after 24 h with 8 μg/ml PNA: 13 fold
B1: Peanut agglutinin (PNA), agarose-conjugated (natural protein, Arachis hypogaea, UniProt P02872 24-273, looked up)
chain: AETVSFNFNSFSEGNPAINFQGDVTVLSNGNIQLTNLNKVNSVGRVLYAMPVRIWSSATGNVASFLTSFSFEMKDIKDYDPADGIIFFIAPEDTQIPAGSIGGGTLGVSDTKGAGHFVGVEFDTYSNSEYNDPPTDHVGIDVNSVDSVKTVPWNSVSGAVVKVTVIYDSSTKTLSVAVTNDNGDITTIAQVVDLKAKLPERVKFGFSASGSLGGRQIHLIRSWSFTSTLITTTRRSIDNNEKKIMNMASA
